Measured values from patent US20250163127A1 (published 2025).

T1: CD80 (human)
T1 chain: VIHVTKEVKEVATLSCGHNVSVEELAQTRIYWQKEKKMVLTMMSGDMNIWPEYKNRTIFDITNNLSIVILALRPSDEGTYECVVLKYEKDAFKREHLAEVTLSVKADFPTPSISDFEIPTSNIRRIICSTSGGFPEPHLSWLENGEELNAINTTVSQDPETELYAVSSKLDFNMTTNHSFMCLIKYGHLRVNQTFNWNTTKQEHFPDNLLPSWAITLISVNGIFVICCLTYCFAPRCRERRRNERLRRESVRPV

T2: human CD86 (human)
T2 chain: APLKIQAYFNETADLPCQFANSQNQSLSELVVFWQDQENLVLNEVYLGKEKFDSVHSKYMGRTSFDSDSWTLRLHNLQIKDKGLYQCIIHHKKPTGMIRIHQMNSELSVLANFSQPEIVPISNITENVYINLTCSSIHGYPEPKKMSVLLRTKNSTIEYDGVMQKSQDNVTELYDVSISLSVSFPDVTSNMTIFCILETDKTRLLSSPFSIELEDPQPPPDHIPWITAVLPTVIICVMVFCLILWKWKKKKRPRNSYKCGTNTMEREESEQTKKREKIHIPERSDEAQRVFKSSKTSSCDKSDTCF

T3: TIGIT (human, UniProt Q495A1)
T3 sequence: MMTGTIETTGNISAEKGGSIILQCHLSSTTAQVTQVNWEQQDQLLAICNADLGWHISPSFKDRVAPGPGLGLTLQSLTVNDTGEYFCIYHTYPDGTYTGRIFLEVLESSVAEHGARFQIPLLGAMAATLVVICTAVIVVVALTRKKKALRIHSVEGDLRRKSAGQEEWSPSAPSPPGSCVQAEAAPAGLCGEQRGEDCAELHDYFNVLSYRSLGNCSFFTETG

T4: human TIGIT (human, UniProt Q495A1)
T4 sequence: T3 sequence

B1: CD155 665-CTLA-4 3037-Fc (Fc fusion)
chain: WPPPGTGDVVVQAPTQVSGFLGDSVTLPCYLQVPNMEVTHVSQLTWARHGESGSMAVFHQTQGPWYAESKRLEFVAARLGAELRNASLRVFGLRAEDEGNYTCQFVTFPQRSRSVDIWLRVLGGGGSGGGGSGGGGSKAMHVAQPAVVFASSHGIASFVCEYASPWKATEVRVTVLRQADSQVTEVCAATYMTGNELTFLDDSICTGTSSGNQVNLTIQGLRAMDTGLYICKVEQMYPPPYLLGIGNGTQIYVIDPEPCPDSDGSGGGGSEPKSSDKTHTCPPCPAPEAEGAPSVFLFPPKPKDTLMISRTPEVTCVVVDVSHEDPEVKFNWYVDGVEVHNAKTKPREEQYNSTYRVVSVLTVLHQDWLNGKEYKCKVSNKALPAPIEKTISKAKGQPREPQVYTLPPSRDELTKNQVSLTCLVKGFYPSDIAVEWESNGQPENNYKTTPPVLDSDGSFFLYSKLTVDKSRWQQGNVFSCSVMHEALHNHYTQKSLSLSPG
B2: CTLA-4 3060-CD155 665-Fc (Fc fusion)
chain: KAMHVAQPAVVFASSHGIASFVCEYASPWKATEVRVTVLRQADSQVTEVCAATYMTGNELTFLDDSICTGTSSGNQVNLTIQGLRAMDTGLYICKVEQMYPPPYLLGIGNGTQIYVIDPEPCPDSDGGGGSGGGGSGGGGSWPPPGTGDVVVQAPTQVSGFLGDSVTLPCYLQVPNMEVTHVSQLTWARHGESGSMAVFHQTQGPWYAESKRLEFVAARLGAELRNASLRVFGLRAEDEGNYTCQFVTFPQRSRSVDIWLRVLGSGGGGSEPKSSDKTHTCPPCPAPEAEGAPSVFLFPPKPKDTLMISRTPEVTCVVVDVSHEDPEVKFNWYVDGVEVHNAKTKPREEQYNSTYRVVSVLTVLHQDWLNGKEYKCKVSNKALPAPIEKTISKAKGQPREPQVYTLPPSRDELTKNQVSLTCLVKGFYPSDIAVEWESNGQPENNYKTTPPVLDSDGSFFLYSKLTVDKSRWQQGNVFSCSVMHEALHNHYTQKSLSLSPG
B3: CD58 3650-PD-L1 303-PD-L1 303-CD58 3650 (other)
chain: SQQIYGVVYGNVTFHVPSNVPLKEVLWKKQKDKVAELENSEFRAFSSFKNRVYLDTVSGSLTIYNLTSSDEDEYEMESPNITDTMKFFLYVLESGGGGSGGGGSGGGGSFTVTVPKDLYVVEYGSNMTIECKFPVEKQLDLAALIVYWEMEGKDIIQFVHGEEDQKAQHSSYRQRARLLKDQLSLGNAALQITDVKLQDAGVYRCMISYGGGADYKRITVKVNAGGGGSGGGGSGGGGSFTVTVPKDLYVVEYGSNMTIECKFPVEKQLDLAALIVYWEMEGKDIIQFVHGEEDQKAQHSSYRQRARLLKDQLSLGNAALQITDVKLQDAGVYRCMISYGGGADYKRITVKVNAGSGGSGGGGSGGGGSSQQIYGVVYGNVTFHVPSNVPLKEVLWKKQKDKVAELENSEFRAFSSFKNRVYLDTVSGSLTIYNLTSSDEDEYEMESPNITDTMKFFLYVLESGSGGGGSDYKDDDDKHHHHHH
B4: CD58 3650-CD155 665-Fc (Fc fusion)
chain: SQQIYGVVYGNVTFHVPSNVPLKEVLWKKQKDKVAELENSEFRAFSSFKNRVYLDTVSGSLTIYNLTSSDEDEYEMESPNITDTMKFFLYVLESGGGGSGGGGSGGGGSWPPPGTGDVVVQAPTQVSGFLGDSVTLPCYLQVPNMEVTHVSQLTWARHGESGSMAVFHQTQGPWYAESKRLEFVAARLGAELRNASLRVFGLRAEDEGNYTCQFVTFPQRSRSVDIWLRVLGSGGGGSEPKSSDKTHTCPPCPAPEAEGAPSVFLFPPKPKDTLMISRTPEVTCVVVDVSHEDPEVKFNWYVDGVEVHNAKTKPREEQYNSTYRVVSVLTVLHQDWLNGKEYKCKVSNKALPAPIEKTISKAKGQPREPQVYTLPPSRDELTKNQVSLTCLVKGFYPSDIAVEWESNGQPENNYKTTPPVLDSDGSFFLYSKLTVDKSRWQQGNVFSCSVMHEALHNHYTQKSLSLSPG
B5: CD58 3650-CD58 3650-PD-L1 303-PD-L1 303 (other)
chain: SQQIYGVVYGNVTFHVPSNVPLKEVLWKKQKDKVAELENSEFRAFSSFKNRVYLDTVSGSLTIYNLTSSDEDEYEMESPNITDTMKFFLYVLESGGGGSGGGGSGGGGSSQQIYGVVYGNVTFHVPSNVPLKEVLWKKQKDKVAELENSEFRAFSSFKNRVYLDTVSGSLTIYNLTSSDEDEYEMESPNITDTMKFFLYVLESGGGGSGGGGSGGGGSFTVTVPKDLYVVEYGSNMTIECKFPVEKQLDLAALIVYWEMEGKDIIQFVHGEEDQKAQHSSYRQRARLLKDQLSLGNAALQITDVKLQDAGVYRCMISYGGGADYKRITVKVNAGSGGSGGGGSGGGGSFTVTVPKDLYVVEYGSNMTIECKFPVEKQLDLAALIVYWEMEGKDIIQFVHGEEDQKAQHSSYRQRARLLKDQLSLGNAALQITDVKLQDAGVYRCMISYGGGADYKRITVKVNAGSGGGGSDYKDDDDKHHHHHH
B6: CD155 665-CD58 3650-Fc (Fc fusion)
chain: WPPPGTGDVVVQAPTQVSGFLGDSVTLPCYLQVPNMEVTHVSQLTWARHGESGSMAVFHQTQGPWYAESKRLEFVAARLGAELRNASLRVFGLRAEDEGNYTCQFVTFPQRSRSVDIWLRVLGGGGSGGGGSGGGGSSQQIYGVVYGNVTFHVPSNVPLKEVLWKKQKDKVAELENSEFRAFSSFKNRVYLDTVSGSLTIYNLTSSDEDEYEMESPNITDTMKFFLYVLESGSGGGGSEPKSSDKTHTCPPCPAPEAEGAPSVFLFPPKPKDTLMISRTPEVTCVVVDVSHEDPEVKFNWYVDGVEVHNAKTKPREEQYNSTYRVVSVLTVLHQDWLNGKEYKCKVSNKALPAPIEKTISKAKGQPREPQVYTLPPSRDELTKNQVSLTCLVKGFYPSDIAVEWESNGQPENNYKTTPPVLDSDGSFFLYSKLTVDKSRWQQGNVFSCSVMHEALHNHYTQKSLSLSPG
B7: CD155 665-CTLA-4 3037-Fc (Fc fusion)
chain: B1 chain
B8: CTLA-4 3060-CD155 665-Fc (Fc fusion)
chain: B2 chain
B9: PD-L1 303-CD155 665-CTLA-4 3037-Fc (Fc fusion)
chain: FTVTVPKDLYVVEYGSNMTIECKFPVEKQLDLAALIVYWEMEGKDIIQFVHGEEDQKAQHSSYRQRARLLKDQLSLGNAALQITDVKLQDAGVYRCMISYGGGADYKRITVKVNAGGGGSGGGGSGGGGSWPPPGTGDVVVQAPTQVSGFLGDSVTLPCYLQVPNMEVTHVSQLTWARHGESGSMAVFHQTQGPWYAESKRLEFVAARLGAELRNASLRVFGLRAEDEGNYTCQFVTFPQRSRSVDIWLRVLGGGGSGGGGSGGGGSKAMHVAQPAVVFASSHGIASFVCEYASPWKATEVRVTVLRQADSQVTEVCAATYMTGNELTFLDDSICTGTSSGNQVNLTIQGLRAMDTGLYICKVEQMYPPPYLLGIGNGTQIYVIDPEPCPDSDGSGGGGSEPKSSDKTHTCPPCPAPEAEGAPSVFLFPPKPKDTLMISRTPEVTCVVVDVSHEDPEVKFNWYVDGVEVHNAKTKPREEQYNSTYRVVSVLTVLHQDWLNGKEYKCKVSNKALPAPIEKTISKAKGQPREPQVYTLPPSRDELTKNQVSLTCLVKGFYPSDIAVEWESNGQPENNYKTTPPVLDSDGSFFLYSKLTVDKSRWQQGNVFSCSVMHEALHNHYTQKSLSLSPG
B10: CD 155 665 G4S FLAGHis (ligand)
chain: WPPPGTGDVVVQAPTQVSGFLGDSVTLPCYLQVPNMEVTHVSQLTWARHGESGSMAVFHQTQGPWYAESKRLEFVAARLGAELRNASLRVFGLRAEDEGNYTCQFVTFPQRSRSVDIWLRVLGGGGSDYKDDDDKHHHHHH

Target: T1, CD80
Test: flow cytometry, CHO-CD80 cells

Binder | EC50 [nM]
B1 | 4.1
B2 | 1.8

These binders were tested against CD2 (human, UniProt P06729) (assay: cell-based or functional assay).

Binder | 100 nM IFN-gamma (pg/mL), SEB assay [pg/mL]
B3 | 16200
B4 | 6490
B5 | 6030
B6 | 5850

Target: T2, human CD86
Test: cell-based or functional assay

Binder | 100 nM IFN-gamma (pg/mL), SEB assay [pg/mL]
B7 | 4310
B8 | 1900
B9 | 7350

Each binder was assayed against T3, TIGIT (assay: cell-based or functional assay).

Binder | 100 nM IFN-gamma (pg/mL), SEB assay [pg/mL]
B7 | 4310
B4 | 6490
B8 | 1900
B6 | 5850
B9 | 7350
B10 | 10300

Each binder was assayed against PD-1 (human, UniProt Q15116) (assay: cell-based or functional assay).

Binder | 100 nM IFN-gamma (pg/mL), SEB assay [pg/mL]
B3 | 16200
B5 | 6030
B9 | 7350

What follows are binders tested against T4, human TIGIT (assay: flow cytometry, Jurkat/IL-2/TIGIT cells).

Binder | EC50 [nM]
B1 | 0.6
B2 | 3.4
